Test system: Caco-2 polarized monolayer
Assay: Bidirectional transport of FITC-LL-37 through the Caco-2 epithelial monolayer
Assay type: in vitro ADME, human
Procedure: Caco-2 cell line (ATCC HTB-37) was cultured in a humidified CO2-incubator (5% CO2, 37 °C) in the complete DMEM/F12 (1:1) medium (Gibco, Waltham, MA, USA) containing 10% fetal bovine serum (FBS, Gibco) and 1X antibiotic–antimycotic solution (Gibco). To stabilize the cell phenotype, Caco-2 cells have been subcultivated three times before seeding on the filter supports. Then, Caco-2 cells were seeded at a density of 2 × 10^5 cells/cm^2 onto 24-well Millicell cell culture inserts (PC, 0.4-μm pore size, 0.6 cm^2 surface area, cat. #PIHP01250) (Millipore, Burlington, MA, USA), precoated with 0.2% bovine gelatin (Sigma-Aldrich, Saint Louis, MO, USA). After seeding, Caco-2 cells were grown in the same complete medium with re-feeding every 2–3 days until polarization of the monolayer occurred. The functional polarity of the monolayers was developed when transepithelial electrical resistance (TEER) between the apical and basolateral surfaces of the monolayers reached […] as measured by the electrical resistance system Millicell-ERS Voltohmmeter (Millipore, Burlington, MA, USA). Grown cell monolayers were used in transport and cytokine production experiments between the 21st and 29th days.
LL-37 was labeled with fluorescein isothiocyanate isomer I (FITC) (Sigma-Aldrich). For coupling with FITC, 0.5 mg of LL-37 in 50 µL of DMSO was first mixed with 200 µL of the carbonate–bicarbonate coupling buffer (0.1 M sodium carbonate, 0.1 M sodium bicarbonate, pH 10.4). Then, 4 mg of FITC in 200 µL of DMSO was added to the solution, and the resultant mixture was incubated in the dark at room temperature (20–22 °C) for 2 h. FITC-LL-37 was purified by using a PD10 gel-filtration column (GE Healthcare, Chicago, IL, USA) pre-equilibrated with PBS.
The penetration capability of FITC-LL-37 was investigated using Caco-2 cells as an in vitro model of the intestinal epithelial barrier, grown on permeable Millicell cell culture inserts. Transport of the compound from both sides of the monolayer was determined in the transport buffer (Hank’s balanced salt solution, containing 25 mM HEPES, 1 mM MgCl2, 1 mM CaCl2, and 10 mM D(+)glucose, pH 7.4). […]
Transfer of LL-37 through Caco-2 monolayers under steady-state conditions was evaluated mathematically for each direction and each insert by the apparent permeability coefficient (Papp), calculated according to the following Equation (1): Papp = ΔC/Δt × (V/(A × Ci))(1) where ΔC/Δt is the solute flux (nM/s) across the barrier, V is the volume of the acceptor chamber, A is the effective filter area of the well (cm^2), and Ci is the initial concentration of the donor solution (nM). […]

Substance: LL-37: the only human cathelicidin, host defense antimicrobial peptide of 37 a.a. residues, produced by solid-phase peptide synthesis
- Apparent permeability (Papp) B → A (secretory) (Caco-2 (ATCC HTB-37) on Millicell PC inserts, day 21-29, TEER 400, basolateral-to-apical, FITC-labeled LL-37, 5 µM donor, HBSS, 25 mM HEPES, pH 7.4 both sides, 37 °C, 90 min, range over 4 independent inserts): 1.7–2.1 × 10^−6 cm/s
- Uptake ratio (UR) = Papp(A → B)/Papp(B → A) (Caco-2, FITC-labeled LL-37 5 µM, pH 7.4, 90 min): 0.51
- Efflux ratio (ER) = Papp(B → A)/Papp(A → B) (Caco-2, FITC-labeled LL-37 5 µM, pH 7.4, 90 min, no inhibitor): 1.95
- Predicted absorption in the human gut (predicted from Caco-2 Papp A → B by the classification of ref 20): 0–20%
